Source: US20220073643A1 (NANJING GENSCRIPT BIOTECH, published 2022)
Values joined by “and” are separate entries in the source; they are usually repeats but may differ in a detail not shown here. Equal entries are not always repeated.

B1: 207F8G5 (antibody, V domains shown)
VH: QAYLQQSGAELVRSGASVKMSCKASGFTFTSYNIHWVKQTPGQGLEWIGYISPGNGGSNYNLKFKDKATLTSATSSSTAYMQISSLTSEDSAVYFCATGRGFAYWGQGTLVTVSA
VL: DIVMTQSPSSLTVTPGEKVTMSCKSSQSLFNSGNQKNYLIWYQQKPGQPPKLLIYRASTRDSGVPDRFTGSGSGTDFTLTISNVQAEDLAIYYCQNDYSYPLTFGAGTKLELK
notes: mouse hybridoma mAb
B2: 217D9G2 (antibody, V domains shown)
VH: QAYLQQSGAELVRSGASVKMSCKASGFTFTSYNIHWVKQTPGQGLEWIGYISPGNGGSNYNLNFKDKATLTAATSSTTAYMQISSLTSEDSAVYFCATGRGFAYWGQGTLVTVSA
VL: DIVMTQSPSSLTVTPGEKVTMSCRSSQSLFNSGNQKNYLIWYQQKPGQPPKLLIYRASTRDSGVPDRFTGSGSGTDFTLTISNVQAEDLAVYYCQNDYSYPLTFGAGTKLELK
notes: mouse hybridoma mAb
B3: 222B6G5 (antibody, V domains shown)
VH: QTYLQQSGAELVRSGASVKMSCKASGYTFTSYNIHWVKQTPGQGLEWIGYISPGNGGTYYNLKFKDKATLTTATSSSTAYMQISSLTSEDSAVYFCATGRGFAYWGQGTLVTVSA
VL: DIVMTQSPSSLTVTPGEKVTMSCKSSQSLFNSGNQKNYLIWYQQKPGQPPKLLIYRASTRDSGVPDRFTGSGSGTDFTLTISNVQAEDLAVYYCQNDYSYPLTFGAGTKLELK
notes: mouse hybridoma mAb; also called 222B6G5-2
B4: 232C5E3 (antibody, V domains shown)
VH: QAYLQQSGAELVRSGASVKMSCKASGYTFTSHNIHWIKQTPGKGLEWIGYIYPGNGGTNYNQKFKAKATLTADTSSSTAYMQISSLTSEDSAVYFCARDYYGNSFAYWGQGTLVTVSA
VL: DIMMTQSPSSLTETAGEKVSMSCKSSQSLLNSGNQKNYLTWYQQKPGQPPKLLIYWASTRESGVPDRFSGSGSGTDFTLTISSVQAEDLAVYYCQNGYRFPFTFGAGTKLELK
notes: mouse hybridoma mAb
B5: 200A4H8 (antibody, V domains shown)
VH: QVQLKQSGPGLVQPSQSLSITCTVSGFSLTRYGVHWVRQSPGKGLEWLGVIWSGGNTDYNAAFISRLNIRKDNSKSQVFFKMNSLKPNDTAIYYCARAAYFGNSFDYWGQGTTLTVSS
VL: DIVMTQSPSSLPVTAGEKVTMSCKSSQSLLNSGNQKNYLTWYQQKPGQPPKLLIYWASTRDSGVPDRFTGSGSGTDFTLTISSVQAEDLAVYYCQNNYIYPLTFGAGTKLELK
notes: mouse hybridoma mAb
B6: 181C7B2 (antibody, V domains shown)
VH: QVQLKQSGPGLVQPSQSLSITCTVSGFSLTYYGVHWVRQSPGKGLEWLGVIWRGGNTDYNAAFISRLSINKDNSKSQVFFKMNSLQPNDTAIYYCARAAYYGNCFDYWGQGTTLTVSS
VL: DIVMTQSPSSLTVTAGEKVTMSCKSSQSLLNSGNQKNYLTWYQQKPGQPPKLLIYWASTRESGVPDRFTGSGSGTDFTLTISSVQAEDLAVYYCQNNYIYPLTFGAGTKLELK
notes: mouse hybridoma mAb
B7: 201F4H6 (antibody, V domains shown)
VH: QVQLKESGPGLVAPSQSLSITCTVSGFSLTSYGVSWVRQPPGKGLECLGVIWAGGNTNYNSALMSRLSISKDKSKSQVFLKMNSLQTDDTAMYYCARVYYGNAMDYWGQGTSVTVSS
VL: DIVMTQSPSSLTVTAGEKVTMSCKSSQSLLNSGNQKSYLTWYQQRPGQPPKLLIYWASTRESGVPDRFTGSGSGTDFTLTISSVQAEDLAVYFCQNVYFFPFTFGSGTKLETK
notes: mouse hybridoma mAb
B8: 248E6A7 (antibody, V domains shown)
VH: QAYLQQSGAELVRSGASVKMSCRASGYTFTSHNMHWVKQTPGQGLEWIGYIYPGNGNTYYNQKFKVKATLTADTSSNTAYMQINSLTSEDSAVYFCVRDYYGNSFVYWGQGTLVTVSA
VL: DVVMTQSPSSLTEKTGEKVTMTCKSSQSLLNSGNQKNYLAWYQQKPGQPPKLLIYWASTRESGVPDRFIGSGSGTDFTLTISSLQTEDLAVYYCQNNYMYPFTFGAGTKLELK
B9: 240A8E7 (antibody, V domains shown)
VH: QAYLQQSGAELVRSGASVKMSCKASGYTFTNYNIHWVKQTPGQGLEWIGYIYPGNGDNYYNQKFKGKATLTADTSSSTAYMQISSLTSEDSAVYFCARDYYGNSFAYWGQGTLVTVSA
VL: DVVMTQSPSSLTVTAGEKVTMNCKSSQSLLNSGNQKNYLTWYQQKPGQPPKMLIYWASTRESGVPDRFTGSGSGTDFTLTISSVQAEDLAIYYCQNDYYYPFTFGAGTKLELK
B10: 241H10A1 (antibody, V domains shown)
VH: QVQLQQSGAELVKPGASVKLSCKASGYTFTSFGINWLRQRPEQGLEWIGWIFPGDGNSKYNENFKGKATLTTDKSSSTAYMQVTRLTSEDSAVYFCARFYYGNSFANWGQGTLVTVSA
VL: DIVMTQSPSSLTVTAGEKVTMSCKSSQSLLNSGNQKNYLTWYQQKPGQPPKLLIYWAATRESGVPDRFTGSGSGTDFTLTISSVQAEDLAVYYCQNDYFYPFTFGGGTKLELK
B11: 243F6D2 (antibody, V domains shown)
VH: QAYLQQSGAELVRSGASVKMSCRASGYTFTSHNMHWVKQTPGQGLEWIGYIYPGNGGTYYNQKFKGKATLTADTSSSTAYMQISSLTSEDSAVYFCARDYYGNSFVYWGQGTLVTVSA
VL: DVVMTQSPSSLTEKTGEKVSMSCKSSQSLLNSGNQKNYLTWYQQKPGQPPKLLIYWASTRESGVPDRFTGSGSGTDFTLTISSLQTEDLAVYYCQNNYRYPFTFGAGTKLELK
B12: 240F8G2 (antibody, V domains shown)
VH: QAYLQQSGAELVRSGASVKMSCKASGYTFTNYNIHWVKQTPGQGLEWIGYIYPGNGGNYYNQKFKGKATLTADTSSSTAYMQISSLTSEDSAVYFCARDYYGNSFAYWGQGTLVTVSA
VL: DIVVTQSPSSLTVTAGEKVTMNCKSSQSLLNSGNQKNYLTWYQQKPGQPPKLLIYWASTRESGVPDRFTGSGSGTDFTLTISSVQAEDLAIYYCQNDYYYPLTFGAGTKLELK
B13: 242F5H2 (antibody, V domains shown)
VH: EVMLVESGGGLVKPGGSLKLSCAASGFTFSSYTVSWVRQTPEKRLEWVATSIVGSTYTYFPDSVKGRFTISRDFAKNTLFLQMSSLRSEDTAMYYCSRLGRGNAMDYWGQGTSVSVSS
VL: DIVMTQSPSSLTVTAGEKVTLNCRSSQSLLNSGNQKNYLTWYQQKPGQPPKLLIYWASTRESGVPDRFTGSGSGTDFTLTISSVQADDLAVYYCQNGYSYPFTFGSGTKLEIK
B14: 244A1B8 (antibody, V domains shown)
VH: QAYLQQSGAELVRSGASVKMSCKASGYTFTSHNIHWVKQTPGQGLEWIGYIYPGNGAPNYNQKFRGKATLTADTSSSTAYMQISSLTSEDSAVYFCARDYYGNSFVYWGQGTLVTVSA
VL: DIVMTQSPSSLTEKAGEKVSMSCKSSQSLLNSGNQKNYLTWYQQKPGQPPKLLIYWASTRESGVPDRFTGSGSGTDFTLTISSVQAEDLAVYYCQNDYRYPFTFGAGTKLELK
B15: 240D6F5 (antibody, V domains shown)
VH: QAYLQQSGAELVRSGASVKMSCKASGYTFTSHNMHWVKQTPGQGLEWIGYIYPGNGGTNYNQKFKGKATLTADPSSSTAYMQINSLTSEDSAVYFCTRDYYGNSFAYWGQGTLVTVSA
VL: DIVMTQSPSSLTEKAGERVSMSCKSSQSLFNSGNQKNYLTWYQQKPGQPPKLLIYWASTRESGVPDRFTGSGSGTDFTLTISSVQAEDLAVYYCQNDYRYPFTFGAGTKLELK
B16: 243B4F7 (antibody, V domains shown)
VH: QAYLQQSGAELVRSGASVKMSCKASGYTFTSHNLHWVKQTPGQGLEWIGYIYPGNGNTNYNQKFKGKATLTADTSSSTAYMQISSLTSEDSAVYFCTRDYYGNSFAYWGQGTLVTVSA
VL: DIVMTQSPSSLTEKAGERVSMSCKSSQSLFNSGNQKNYLTWYQQKPGQPPKLLIYWASTRESGVPDRFTGSGSGTDFTLTISSVQAEDLAVYYCQNNYWFPFTFGAGTKLELK
B17: 243B4F2 (antibody, V domains shown)
VH: QAYLQQSGAELVRSGASVKMSCKASGYTFTSHNLHWVKQTPGQGLEWIGYIYPGNGNTNYNQKFKGKATLTADTSSSTAYMQISSLTSEDSAVYFCTRDYYGNSFAYWGQGTLVTVSA
VL: DIVMTQSPSSLTEKAGERVSMSCKSSQSLFNSGNQKNYLTWYQQKPGQPPKLLIYWASTRESGVPDRFTGSGSGTDFTLTISSVQAEDLAVYYCQNNYWFPFTFGAGTKLELK
B18: 242H12D6 (antibody, V domains shown)
VH: QAYLQQSGAELVRSGASVKMSCKASGYTFTSHNMHWVKQTPGQGLEWIGYIYPGNGGTNYNQKFKGKATLTADTSSSTAYMQINSLTSEDSAVYFCTRDYYGNSFAYWGQGTLVTVSA
VL: DIVMTQSPSSLTEKAGERVSMSCKSSQSLFNSGNQKNYLTWYQQKPGQPPKLLIYWASTRESGVPDRFTGSGSGTDFTLTISSVQAEDLAVYYCQNDYRYPFTFGAGTKLELK
B19: 246B5F2 (antibody, IgM, V domains shown)
VH: EVMLVESGGGLMKPGGSLKLSCAASEFTFSNYAMSWVRQTPEKRLEWVATISSGRSSTYYPDSVKGRFTISRDNAKNTLYLQMSSLRSEDTAMYYCAGLGRGNAMEYWGQGTSVTVSS
VL: DIVMTQSPSSLTVTAGEKVTLSCKSSQSLLNSGNQKNYLTWYQQKPGQPPKLLIYWASTRESGVPDRFTGSGSGTDFILTINSVQAEDLAVYYCQNAYSYPFTFGSGTKLEIK

target: T1, human Claudin18.2 (human); assay: cell ELISA, Claudin18.2-expressing HEK293T cells
T1 construct: also called CLDN18.2
Description: To determine protein binding EC₅₀ by Cell ELISA, 96-well U-bottom microplates were pre-blocked with blocking buffer (5% MPBS, 1×PBS with 5% skim milk) overnight at 4° C. On the next day, the Claudin18.2-expressing HEK293T stable cell line was suspended at 1.5×10⁶ cells/ml in blocking buffer, added to the plate in 100 μl/well and incubated at room temperature for 1 hour.
Raw data were plotted with GraphPad Prism v6.02 software with four parameters, best-fit value program to analyze the EC₅₀.

In order of rising EC50:
1. B7  0.283 nM
2. B4  0.651 nM
3. B1  0.822 nM
4. B2  0.908 nM
5. B5  1.01 nM
6. B6  1.07 nM

With B3 the EC50 was 1.13 nM and 1.38 nM.

target: human Claudin18.2 (human); assay: cell-based or functional assay

In order of falling “CDC % Relative activity” value:
1. B19  787%
2. B10  625%
3. B8  161%
4. B13  149%
5. B16  149%
6. B17  134%
7. B12  126%
8. B9  120%
9. B15  119%
10. B18  112%
11. B14  102%
12. B11  70.5%

In order of rising “CDC EC50” value:
1. B19  0.179 µg/mL
2. B10  0.225 µg/mL
3. B8  0.876 µg/mL
4. B16  0.941 µg/mL
5. B13  0.944 µg/mL
6. B17  1.05 µg/mL
7. B12  1.1 µg/mL
8. B9  1.16 µg/mL
9. B15  1.17 µg/mL
10. B18  1.26 µg/mL
11. B14  1.39 µg/mL
12. B11  2 µg/mL
